In PMC3337327, “Crystal structures from the Plasmodium peroxiredoxins: new insights into oligomerization and product binding” (BMC Structural Biology, 2012):

Columns and labels:
[1] = target: Plasmodium knowlesi thioredoxin peroxiredoxin 1 (PkTrx-Px1), full-length His6-tagged construct (P. knowlesi H); test: LC-MS-TOF mass spectrometry; purified enzyme as isolated, without reducing agent; Agilent LC-MS-TOF, positive ion mode, desalted on a Poroshell 300-SB-C3 column; shows the covalent (disulfide-linked) dimer
[2] = target: Plasmodium vivax thioredoxin peroxiredoxin 1 (PvTrx-Px1), full-length His6-tagged construct (P. vivax Salvador I); test: crystal structure; PvTrx-Px1_ox, His6-tag intact, 8 mg/mL in 10 mM HEPES pH 7.5, 500 mM NaCl; 5% PEG 4K, NaAc pH 4.6, 18 C; 2.5 A
[3] = target: Plasmodium vivax thioredoxin peroxiredoxin 1 (PvTrx-Px1), full-length His6-tagged construct (P. vivax Salvador I); test: crystal structure; PvTrx-Px1_red, His6-tag intact, protein treated with 5 mM TCEP; 19% PEG 3350, 150 mM lithium citrate, 18 C; 2.45 A
[4] = target: Plasmodium vivax thioredoxin peroxiredoxin 1 (PvTrx-Px1), full-length His6-tagged construct (P. vivax Salvador I); test: LC-MS-TOF mass spectrometry; purified enzyme as isolated, without reducing agent; Agilent LC-MS-TOF, positive ion mode, desalted on a Poroshell 300-SB-C3 column; shows the covalent (disulfide-linked) dimer
[5] = target: Plasmodium yoelii 1-Cys peroxiredoxin of the Prx6 subfamily (PyPrx6), full-length His6-tagged construct (P. yoelii 17XNL); test: SEC; calibrated Superdex S200 gel filtration column, 10 mM HEPES pH 7.4, 500 mM NaCl; PyPrx6 eluted at 220 mL
[6] = target: Plasmodium yoelii 1-Cys peroxiredoxin of the Prx6 subfamily (PyPrx6), full-length His6-tagged construct (P. yoelii 17XNL); test: crystal structure; PyPrx6-SO2H with glycerol bound, His6-tag intact, 15 mg/mL; 23% PEG 3350, 0.1 M Bis-Tris pH 5.5, 200 mM (NH4)2SO4, 5% ethylene glycol, 20 C; 2.3 A
[7] = target: Plasmodium yoelii thioredoxin peroxiredoxin 1 (PyTrx-Px1), full-length His6-tagged construct (P. yoelii 17XNL); test: LC-MS-TOF mass spectrometry; purified enzyme as isolated, without reducing agent; Agilent LC-MS-TOF, positive ion mode, desalted on a Poroshell 300-SB-C3 column; shows the covalent (disulfide-linked) dimer
[8] = target: Plasmodium yoelii thioredoxin peroxiredoxin 1 with a 6-residue N-terminal truncation (PyTrx-Px1: Q7-L195) (P. yoelii 17XNL); test: crystal structure; PyTrx-Px1_ox, His6-tag intact, 4.3 mg/mL; 1.6 M ammonium sulfate, 100 mM HEPES pH 6.8, 200 mM NaAc, 20 mM NaBr, 5% ethylene glycol, 18 C; 2.3 A
[9] = target: Plasmodium yoelii thioredoxin peroxiredoxin 1 with a 6-residue N-terminal truncation (PyTrx-Px1: Q7-L195) (P. yoelii 17XNL); test: LC-MS-TOF mass spectrometry; purified enzyme as isolated, without reducing agent; Agilent LC-MS-TOF, positive ion mode, desalted on a Poroshell 300-SB-C3 column; shows the covalent (disulfide-linked) dimer
[10] = target: the molecule itself; test: as above

Plasmodium knowlesi thioredoxin peroxiredoxin 1 (PkTrx-Px1), full-length His6-tagged construct (enzyme)
stoichiometry N [1]: 2

Plasmodium vivax thioredoxin peroxiredoxin 1 (PvTrx-Px1), full-length His6-tagged construct (enzyme)
stoichiometry N [2]: 10 | stoichiometry N [3]: 10 | stoichiometry N [4]: 2

Plasmodium yoelii 1-Cys peroxiredoxin of the Prx6 subfamily (PyPrx6), full-length His6-tagged construct (enzyme)
stoichiometry N [5]: 2 | stoichiometry N [6]: 2

Plasmodium yoelii thioredoxin peroxiredoxin 1 (PyTrx-Px1), full-length His6-tagged construct (enzyme)
stoichiometry N [7]: 2

Plasmodium yoelii thioredoxin peroxiredoxin 1 with a 6-residue N-terminal truncation (PyTrx-Px1: Q7-L195) (domain or fragment)
stoichiometry N [8]: 8 | stoichiometry N [9]: 2

B1: Plasmodium falciparum thioredoxin peroxiredoxin 1 (PfTrx-Px1), full-length His6-tagged construct (enzyme, P. falciparum 3D7, UniProt Q8IL80 1-195, looked up)
chain: MASYVGREAPYFKAEAVFADNTFGEVNLHDFIGKKYVLLYFYPLDFTFVCPSEIIALDKALDAFKERNVELIGCSVDSKYTHLAWKKTPLTKGGIGNIQHTLISDITKSISRSYNVLFGDSVSLRAFVLIDKQGVVQHLLVNNLAIGRSVEEVLRIIDAVQHHEQHGDVCPANWKKGKVAMKPSEEGVSEYLSKL
modifications: intermolecular disulfide between the peroxidatic and resolving cysteines (C50, C170) in the enzyme as purified
notes: thioredoxin peroxiredoxin 1 (Trx-Px1, 2-Cys Prx, Prx1 subfamily), P. falciparum 3D7, PlasmoDB PF14_0368, full length; N-terminal Met of the tag is clipped in E. coli; also called Trx-Px1 from P. falciparum
stoichiometry N [10]: 2
